From the supplement of paper PMC10567573 come the findings set out here.

± gives the standard deviation.

This data set is described as follows: protein stability index of a GFP-peptide fusion (GPS, HEK-293T) (PSI 1-6); higher = more stable. The note with it: c terminus: a fixed tail appended.
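Note: 24-mer peptide tiles fused after GFP, lentivirally expressed, FACS-sorted into six equal bins by GFP/DsRed ratio, decoded by Illumina sequencing, PSI is the read-weighted mean bin number.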

As for ELVGSGYRMSLVKRRFATGMYLVS [FCHO1], the protein stability index runs as follows: (treatment: DMSO) 2.46 ± 0.64; (treatment: MLN4924 1 uM, 8 h) 2.26 ± 0.43. The matching figures for EMVRFLLEAGADQEHKTDEMHTAL [ANKRD17]: 2.88 ± 0.38 and 3.05 ± 0.42. The sequence ENDGFVFKMPWKPTHPSSTHALAE [CDC25B] showed a protein stability index (treatment: DMSO) of 3.55 ± 0.44 and a protein stability index (treatment: MLN4924 1 uM, 8 h) of 3.36 ± 0.16. ENEETGEFSIDNYPTDNTKVMIFK [MIA2] displayed a protein stability index (treatment: MLN4924 1 uM, 8 h) of 4.217 ± 0.033. Regarding ENKVVEKAPVQNEAPALGGGEYQE [BEX5], the protein stability index is 5.41 ± 0.2 (treatment: DMSO) and 5.42 ± 0.32 (treatment: MLN4924 1 uM, 8 h).

Take ENMDLNKIDDLMQEITEQQDIAQE [CHMP4C]: the protein stability index runs as follows: (treatment: DMSO) 5.6 ± 0.27; (treatment: MLN4924 1 uM, 8 h) 5.4 ± 0.24. For the sequence ENRRKVLYQRAPRNIHRHVILSEI [TCF25], the protein stability index (treatment: DMSO) amounted to 2.62 ± 0.073 and the protein stability index (treatment: MLN4924 1 uM, 8 h) turned out to be 2.75 ± 0.31. Consider EPSQMLKHAVVNLINYQDDAELAT [CTNNB1], for which the protein stability index came to 4.16 ± 0.32 (treatment: DMSO) and 4.25 ± 0.26 (treatment: MLN4924 1 uM, 8 h). EQALGKGCGADSKKKRPPQPPEES [PLK2]: the protein stability index reads like this: (treatment: DMSO) 5.24 ± 0.41; (treatment: MLN4924 1 uM, 8 h) 5.36 ± 0.2.

EQCPVIDSQAPAGSLDLVPGGLTL [SPDEF]: the protein stability index (treatment: DMSO) was determined as 4.07 ± 0.23 and the protein stability index (treatment: MLN4924 1 uM, 8 h) was 4.24 ± 0.13. The matching figures for EQEKEAQHKDQTAALPLAAEETAN [MAP2]: 5.66 ± 0.12 and 5.5 ± 0.4. The matching figures for EQELYNNFVYNSPRGYFHTFAGDT [WASL]: 2.73 ± 0.21 and 2.78 ± 0.32. For the sequence EQIHLLLSSQCFSNISRPRDNPMC [M1AP], the protein stability index is 2.25 ± 0.43 (treatment: DMSO) and 2.33 ± 0.25 (treatment: MLN4924 1 uM, 8 h).

Regarding EQLLARGYAVNVFDIQQGFDNPQV [NSDHL], the protein stability index reads like this: (treatment: DMSO) 2.77 ± 0.19; (treatment: MLN4924 1 uM, 8 h) 3.54 ± 0.24.

As to EQQHYFNTPFQLSIAPPEAEGVVL [PPTC7], the protein stability index is 3.29 ± 0.38 (treatment: DMSO) and 3.56 ± 0.43 (treatment: MLN4924 1 uM, 8 h). The matching figures for ERAKMSSSEVGPFVSKIRAVINDI [AUH]: 2.76 ± 0.14 and 2.86 ± 0.31. The matching figures for ERKPAATARLSRRGTSLSPPPESS [KISS1]: 5.16 ± 0.17 and 5.26 ± 0.17. The matching figures for ESIQQTARSIAEQAHELAYDPNYM [PPTC7]: 4.52 ± 0.19 and 4.3 ± 0.37.

With ESVEQLESRIVEQENAIQTMELRN [SNX8], the protein stability index is, setting by setting: (treatment: DMSO) 5.41 ± 0.21; (treatment: MLN4924 1 uM, 8 h) 5.51 ± 0.11. ETAPLTLESLPTDPLLLILSFLDY [FBXO3] yielded a protein stability index (treatment: DMSO) of 2.36 ± 0.19 and a protein stability index (treatment: MLN4924 1 uM, 8 h) of 2.28 ± 0.19.

With ETDDPRRYQKYGYIGTHEYPHFSH [OAS1], the protein stability index runs as follows: (treatment: DMSO) 2.88 ± 0.15; (treatment: MLN4924 1 uM, 8 h) 3 ± 0.19. For the sequence ETPNSLNTTVIPNGSMAMGTVPGQ [LYSMD4], the protein stability index amounted to 4.43 ± 0.19 (treatment: DMSO) and 4.42 ± 0.23 (treatment: MLN4924 1 uM, 8 h). Regarding ETRVWHRRDGKWQIVHFHRSGAPS [CAMK2A], the protein stability index turned out to be 2.95 ± 0.07 (treatment: DMSO) and 3.1 ± 0.25 (treatment: MLN4924 1 uM, 8 h). Regarding ETTRNTTGIEESTDGMILGPEDLS [LARP4], the protein stability index is 5.47 ± 0.4 (treatment: DMSO) and 5.43 ± 0.28 (treatment: MLN4924 1 uM, 8 h). The matching figures for ETVKLFICELVMALDYLQNQRIIH [STK32A]: 3.39 ± 0.55 and 3.08 ± 0.27. The matching figures for ETVLALVNCISPLKYFSDFRPYFT [DENND6A]: 2.54 ± 0.48 and 3.21 ± 0.83. The matching figures for EVKTRHSEKSQREDEEEEEGENYQ [CHGB]: 5.64 ± 0.28 and 5.48 ± 0.31. On to EVSQQDPSHGEVGEHKDRIERQWG [ZSCAN9], for which the protein stability index came to 4.69 ± 0.18 (treatment: DMSO) and 4.95 ± 0.15 (treatment: MLN4924 1 uM, 8 h). The matching figures for FALASLLQSAPDVKGRVRCLTAGP [ZSWIM9]: 2.02 ± 0.29 and 2.42 ± 0.24. The matching figures for FALGLGFGGVIAFSSYNKQDNNCH [SLC6A17]: 2.01 ± 0.4 and 2.44 ± 0.52. Turning to FANLIKEFVIIDCRYPYEYEGGHI [CDC25A], the protein stability index is, setting by setting: (treatment: DMSO) 2.98 ± 0.51; (treatment: MLN4924 1 uM, 8 h) 2.76 ± 1.1.

For FATRPGAIETAMEDLKGHVAETSG [TPRG1], the protein stability index by setting is: (treatment: DMSO) 4.45 ± 0.31; (treatment: MLN4924 1 uM, 8 h) 4.81 ± 0.19.

Consider FDSSRQRAEGTDIPTVKPLKPRPE [ZC2HC1A], for which the protein stability index reads like this: (treatment: DMSO) 5.02 ± 0.099; (treatment: MLN4924 1 uM, 8 h) 5.09 ± 0.14. The matching figures for FFFAVLHAIYSLSYPMRRSYRYKL [STEAP1]: 2.31 ± 0.4 and 2.43 ± 0.53.

Consider FGIVEIDGMLYILGGEDGEKELIS [GAN], for which the protein stability index by setting is: (treatment: DMSO) 2.35 ± 0.25; (treatment: MLN4924 1 uM, 8 h) 2.31 ± 0.29. As for FIYYENMLLGVPRLRQLKVRNDSC [PKD2L1], the protein stability index by setting is: (treatment: DMSO) 2.33 ± 0.26; (treatment: MLN4924 1 uM, 8 h) 2.19 ± 0.3. The matching figures for FKMPWKPTHPSSTHALAEWASRRE [CDC25B]: 3.54 ± 0.12 and 3.63 ± 0.36. The matching figures for FLPDLLIFQMVIICLMCVHSLERA [SMG5]: 3.28 ± 0.47 and 2.59 ± 0.5.

In the case of FLRQLPFRGDDGIFDDNFIEERKQ [SNX3], the protein stability index came out at 3.55 ± 0.27 (treatment: DMSO) and 3.82 ± 0.35 (treatment: MLN4924 1 uM, 8 h). The matching figures for FLSLDIPIGELYGLSESSGPHTIS [ACSBG2]: 2.39 ± 0.4 and 2.47 ± 0.36. The matching figures for FLSLEASTETLVHVSDEDNNADLC [DLC1]: 5.11 ± 0.27 and 5.2 ± 0.12. As for FMRTDNTCVNLLLEASNYQMMPYM [KLHL13], the protein stability index is 2.46 ± 0.58 (treatment: DMSO) and 2.24 ± 0.36 (treatment: MLN4924 1 uM, 8 h). The matching figures for FMYSGVENKQVVIIHHMRLQAKAL [INTS4]: 2.48 ± 0.33 and 2.52 ± 0.63. The matching figures for FPAKYIYDPWNAPEGIQKVAKCLI [CRY1]: 2.85 ± 0.39 and 2.43 ± 0.32.

For FPAYTQSTASTTSTTNSTAAKPAA [ZNF207], the protein stability index by setting is: (treatment: DMSO) 4.68 ± 0.21; (treatment: MLN4924 1 uM, 8 h) 4.81 ± 0.25.

Turning to FPFQAMVQFHRHHGQEGSILVTKV [GMPPB], the protein stability index reads like this: (treatment: DMSO) 2.22 ± 0.37; (treatment: MLN4924 1 uM, 8 h) 2.07 ± 0.15. The matching figures for FRRGPAPQDQAGPGGAPRVASRNL [CLPTM1]: 4.63 ± 0.17 and 4.25 ± 0.3.

Turning to FSAHYDAVEAELKSSTVGLVTLND [FAM50A], the protein stability index runs as follows: (treatment: DMSO) 3.86 ± 0.16; (treatment: MLN4924 1 uM, 8 h) 3.94 ± 0.32. On to FSEALAEGAVKMGMPSSLAHRIAA [PYCR3], for which the protein stability index by setting is: (treatment: DMSO) 3.12 ± 0.42; (treatment: MLN4924 1 uM, 8 h) 3.06 ± 0.52. The matching figures for FSQSAGLIQHQRIHKGEKPYQCSQ [ZSCAN9]: 3.55 ± 0.071 and 3.68 ± 0.18. The matching figures for FSSERGPRMCRYVRERDRLGNEYP [CDC25A]: 2.93 ± 0.29 and 2.61 ± 0.58.

For the sequence FSVTGGTEEKSSLLMSCLACDTWA [RPAIN], the protein stability index turned out to be 2.27 ± 0.26 (treatment: DMSO) and 2.27 ± 0.25 (treatment: MLN4924 1 uM, 8 h). As for FSVVRRCVKLCTGHEYAAKIINTK [CAMK2B], the protein stability index by setting is: (treatment: DMSO) 2.1 ± 0.35; (treatment: MLN4924 1 uM, 8 h) 2.21 ± 0.19.
